Measurements taken from PMC9902482, “Isoform- and ligand-specific modulation of the adhesion GPCR ADGRL3/Latrophilin3 by a synthetic binder” (Nature Communications, 2023).

What was measured:
[1] = target: T1, full-length ADGRL3 expressed on HEK293T cells (human, UniProt Q9HAR2); test: cell-based or functional assay
Lec domain of ADGRL3 [2] = target: T2, Lec domain of ADGRL3 (human, UniProt Q9HAR2, biotin on the Avi-tag (BirA) in the flow cytometry experiments); test: flow cytometry on cells; competition: 5 µM ADGRL3 Lec domain pre-bound to TEN2 on HEK293T cells, increasing concentrations of LK30; row of LK30 with the Lec domain; details: both partners purified
T2 construct: ADGRL3 (Latrophilin3), human, N-terminal Lectin (Lec) domain; also called ADGRL3Lec; lectin domain of ADGRL3; source: High Five insect cells (baculovirus), secreted, purified (Ni-NTA, SEC)

Lec domain of ADGRL3 [3] = target: T2, Lec domain of ADGRL3; test: SPR; targets immobilised via His-tag on NTA sensor chip, sAB injected in 2-fold serial dilutions (25, 12.5, 6.25, 3.125 nM), RT, MASS-1 instrument, one-to-one Langmuir fit; details: both partners purified
Lec domain of ADGRL1 = target: T3, Lec domain of ADGRL1 (Rattus norvegicus, UniProt O88917); test: as above; details: both partners purified
T3 construct: ADGRL1 (Latrophilin1), rat, Lectin (Lec) domain; In the ELISA the target was held on a neutravidin plate, so it was probably biotinylated; also called Lec domain from ADGRL1; ADGRL1 lectin domain; source: baculovirus method (all proteins); not further stated for this fragment

[4] = target: T1, full-length ADGRL3 expressed on HEK293T …; test: flow cytometry on cells; HEK293T cells expressing full-length receptor, increasing concentrations of LK30, 30 min at 4 °C, detected with Alexa Fluor 647 anti-human F(ab')2; apparent affinity from MFI; details: one partner purified
[5] = target: T4, full-length ADGRL1 expressed on HEK293T cells (Rattus norvegicus (assumed for …, UniProt O88917)); test: as above; details: one partner purified
T4 construct: ADGRL1 (Latrophilin1), full length; also called Latrophilin1; source: HEK293T, transfected, on the cell surface; not shown: FLAG, N-terminal, kept

[6] = target: T5, full-length TEN2 expressed on HEK293T cells (UniProt Q9NT68 1-2774); test: flow cytometry on cells; biotinylated ADGRL3 Lec domain titrated on HEK293T cells expressing full-length TEN2, detected with DyLight 650 neutravidin; details: one partner purified
T5 construct: teneurin-2 (TEN2), full length; Co-transfected with dsRed in the cell aggregation assay; also called FL TEN2; teneurin; source: HEK293T, transfected, on the cell surface
T5 sequence (Q9NT68 whole entry, the tested form may be a part): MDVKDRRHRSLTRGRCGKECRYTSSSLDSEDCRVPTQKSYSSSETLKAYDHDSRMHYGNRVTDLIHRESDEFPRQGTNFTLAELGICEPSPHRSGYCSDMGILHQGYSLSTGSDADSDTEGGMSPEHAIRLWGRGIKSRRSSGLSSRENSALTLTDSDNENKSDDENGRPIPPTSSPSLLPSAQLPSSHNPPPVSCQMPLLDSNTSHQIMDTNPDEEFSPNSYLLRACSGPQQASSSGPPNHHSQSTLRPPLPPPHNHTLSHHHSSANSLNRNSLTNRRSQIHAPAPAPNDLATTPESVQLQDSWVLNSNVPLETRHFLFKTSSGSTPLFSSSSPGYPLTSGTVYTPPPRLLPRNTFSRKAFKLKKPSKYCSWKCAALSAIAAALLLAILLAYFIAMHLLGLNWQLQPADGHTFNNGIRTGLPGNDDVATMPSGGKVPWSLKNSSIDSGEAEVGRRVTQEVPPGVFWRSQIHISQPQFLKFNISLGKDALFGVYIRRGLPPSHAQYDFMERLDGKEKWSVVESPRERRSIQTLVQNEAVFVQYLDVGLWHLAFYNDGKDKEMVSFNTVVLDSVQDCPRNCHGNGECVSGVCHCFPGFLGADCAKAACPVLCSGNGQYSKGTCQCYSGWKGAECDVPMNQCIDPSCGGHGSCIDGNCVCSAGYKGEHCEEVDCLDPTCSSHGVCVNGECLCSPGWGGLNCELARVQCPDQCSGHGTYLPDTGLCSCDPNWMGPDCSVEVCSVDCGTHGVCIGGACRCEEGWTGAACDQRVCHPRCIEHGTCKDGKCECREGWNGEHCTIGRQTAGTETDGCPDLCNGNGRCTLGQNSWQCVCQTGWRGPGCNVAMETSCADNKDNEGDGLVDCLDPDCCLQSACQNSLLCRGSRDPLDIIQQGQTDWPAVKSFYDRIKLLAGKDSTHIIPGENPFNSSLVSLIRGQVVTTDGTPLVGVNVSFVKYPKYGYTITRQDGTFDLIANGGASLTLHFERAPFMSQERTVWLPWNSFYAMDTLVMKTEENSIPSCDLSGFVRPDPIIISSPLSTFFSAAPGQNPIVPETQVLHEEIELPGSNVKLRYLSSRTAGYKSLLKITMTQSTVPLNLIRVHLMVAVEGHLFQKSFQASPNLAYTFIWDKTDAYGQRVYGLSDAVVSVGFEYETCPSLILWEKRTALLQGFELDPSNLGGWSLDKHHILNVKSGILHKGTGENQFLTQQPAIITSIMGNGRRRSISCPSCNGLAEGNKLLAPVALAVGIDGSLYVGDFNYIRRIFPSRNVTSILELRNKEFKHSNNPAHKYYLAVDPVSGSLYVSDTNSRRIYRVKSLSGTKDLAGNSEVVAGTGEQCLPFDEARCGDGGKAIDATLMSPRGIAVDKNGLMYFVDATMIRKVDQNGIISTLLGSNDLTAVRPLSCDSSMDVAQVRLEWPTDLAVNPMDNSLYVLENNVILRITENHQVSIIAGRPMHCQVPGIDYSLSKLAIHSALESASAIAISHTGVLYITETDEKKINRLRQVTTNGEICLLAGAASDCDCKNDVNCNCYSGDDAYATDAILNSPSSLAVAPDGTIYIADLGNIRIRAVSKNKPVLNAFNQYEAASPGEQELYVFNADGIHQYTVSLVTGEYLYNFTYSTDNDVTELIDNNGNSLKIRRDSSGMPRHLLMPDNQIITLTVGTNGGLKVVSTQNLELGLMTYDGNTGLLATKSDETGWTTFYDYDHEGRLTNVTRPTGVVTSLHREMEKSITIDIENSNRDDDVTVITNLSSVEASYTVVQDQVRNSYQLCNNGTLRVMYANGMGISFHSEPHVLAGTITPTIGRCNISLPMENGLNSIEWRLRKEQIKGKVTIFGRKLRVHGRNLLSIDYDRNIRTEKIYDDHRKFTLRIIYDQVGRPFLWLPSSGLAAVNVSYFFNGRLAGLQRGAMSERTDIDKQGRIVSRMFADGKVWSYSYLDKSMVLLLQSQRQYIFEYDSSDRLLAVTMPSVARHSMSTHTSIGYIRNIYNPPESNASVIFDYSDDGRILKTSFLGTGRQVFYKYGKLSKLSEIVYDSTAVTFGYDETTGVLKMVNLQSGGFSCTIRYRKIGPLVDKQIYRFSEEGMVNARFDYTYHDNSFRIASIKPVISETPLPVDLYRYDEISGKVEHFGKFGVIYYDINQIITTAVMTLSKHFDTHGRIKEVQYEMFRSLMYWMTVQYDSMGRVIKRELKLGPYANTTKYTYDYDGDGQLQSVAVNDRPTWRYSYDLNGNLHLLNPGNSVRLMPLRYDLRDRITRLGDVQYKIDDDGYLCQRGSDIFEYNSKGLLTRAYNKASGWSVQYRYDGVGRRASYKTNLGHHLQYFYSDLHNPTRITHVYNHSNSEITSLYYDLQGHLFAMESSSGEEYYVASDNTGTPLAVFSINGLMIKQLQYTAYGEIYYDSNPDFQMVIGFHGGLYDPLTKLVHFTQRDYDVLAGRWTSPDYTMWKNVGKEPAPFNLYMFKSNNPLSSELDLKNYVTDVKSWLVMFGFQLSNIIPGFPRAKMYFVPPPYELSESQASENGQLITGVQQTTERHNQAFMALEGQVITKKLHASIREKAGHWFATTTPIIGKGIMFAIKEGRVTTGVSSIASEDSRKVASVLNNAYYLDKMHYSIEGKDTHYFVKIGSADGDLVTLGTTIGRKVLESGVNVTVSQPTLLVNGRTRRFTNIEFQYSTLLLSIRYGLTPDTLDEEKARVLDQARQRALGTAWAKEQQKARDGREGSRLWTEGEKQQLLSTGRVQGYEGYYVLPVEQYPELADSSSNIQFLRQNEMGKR

T1 sequence (Q9HAR2 20-1447): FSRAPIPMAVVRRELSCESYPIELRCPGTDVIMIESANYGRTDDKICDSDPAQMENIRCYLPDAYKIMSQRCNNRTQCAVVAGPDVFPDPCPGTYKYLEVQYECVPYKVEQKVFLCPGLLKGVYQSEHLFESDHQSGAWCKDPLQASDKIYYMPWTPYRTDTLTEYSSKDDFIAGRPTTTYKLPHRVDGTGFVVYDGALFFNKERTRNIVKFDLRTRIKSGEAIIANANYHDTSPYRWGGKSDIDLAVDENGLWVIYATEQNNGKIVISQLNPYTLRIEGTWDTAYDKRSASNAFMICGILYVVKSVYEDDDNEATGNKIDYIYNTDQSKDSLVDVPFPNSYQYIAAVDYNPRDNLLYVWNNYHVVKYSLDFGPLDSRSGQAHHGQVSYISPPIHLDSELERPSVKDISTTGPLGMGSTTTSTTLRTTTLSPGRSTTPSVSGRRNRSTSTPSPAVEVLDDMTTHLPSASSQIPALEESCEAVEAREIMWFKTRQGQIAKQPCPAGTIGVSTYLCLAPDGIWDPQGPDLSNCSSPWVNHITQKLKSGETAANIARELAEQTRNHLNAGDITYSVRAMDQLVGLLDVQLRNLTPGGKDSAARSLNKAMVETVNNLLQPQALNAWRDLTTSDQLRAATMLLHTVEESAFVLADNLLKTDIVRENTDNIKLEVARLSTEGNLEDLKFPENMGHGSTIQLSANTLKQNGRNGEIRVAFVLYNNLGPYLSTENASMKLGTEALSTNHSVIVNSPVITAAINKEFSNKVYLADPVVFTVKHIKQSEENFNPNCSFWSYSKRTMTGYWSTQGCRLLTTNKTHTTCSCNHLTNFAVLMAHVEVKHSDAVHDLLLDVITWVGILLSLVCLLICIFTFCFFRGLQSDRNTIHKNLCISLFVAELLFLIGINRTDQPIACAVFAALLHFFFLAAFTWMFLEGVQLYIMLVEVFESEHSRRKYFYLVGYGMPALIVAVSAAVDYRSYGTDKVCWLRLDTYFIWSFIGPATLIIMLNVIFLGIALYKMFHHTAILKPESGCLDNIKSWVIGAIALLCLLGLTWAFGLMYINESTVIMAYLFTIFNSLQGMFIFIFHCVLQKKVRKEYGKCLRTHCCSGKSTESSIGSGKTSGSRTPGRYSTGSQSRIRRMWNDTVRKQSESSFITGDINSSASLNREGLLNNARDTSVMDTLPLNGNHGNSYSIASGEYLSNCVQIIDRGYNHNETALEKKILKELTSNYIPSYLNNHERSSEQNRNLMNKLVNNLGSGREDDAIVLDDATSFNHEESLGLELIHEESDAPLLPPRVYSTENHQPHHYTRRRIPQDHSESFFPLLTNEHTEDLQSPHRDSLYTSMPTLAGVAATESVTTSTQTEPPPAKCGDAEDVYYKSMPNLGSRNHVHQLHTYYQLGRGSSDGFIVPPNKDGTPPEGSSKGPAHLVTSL

Binder	SRE-luciferase assay in HEK293T cells transfected with ADGRL3, 1 µM LK30: fold increase over basal activity [1] [fold]	SRE-luciferase assay in HEK293T cells transfected with ADGRL3, titration of LK30: EC50 [1] [nM]	IC50 (Lec domain of ADGRL3 [2]) [nM]	Kd (Lec domain of ADGRL3 [3]) [nM]	Kd (Lec domain of ADGRL1) [nM]	Kd [4] [nM]	Kd [5] [nM]	Kd [6] [nM]
synthetic antibody fragment (sAB) LK30 (Fab, V domains shown, heavy chain (HC) of LK30 in the deposited structure PDB 8DJG; selected from synthetic phage library E on a humanized antibody Fab scaffold; light chain (LC) of LK30 in the deposited structure PDB 8DJG; Fab format (sAB) expressed from vector pRH2.2; source: E. coli BL21 (Gold), purified (protein L, Resource S ion exchange)) VH: EVQLVESGGGLVQPGGSLRLSCAASGFNIYYSSIHWVRQAPGKGLEWVAYISPYSGSTSYADSVKGRFTISADTSKNTAYLQMNSLRAEDTAVYYCARYKYGQGHMGAFDYWGQGTLVTVSS VL: DIQMTQSPSSLSASVGDRVTITCRASQSVSSAVAWYQQKPGKAPKLLIYSASSLYSGVPSRFSGSRSGTDFTLTISSLQPEDFATYYCQQSNTELVTFGQGTKVEIK	~2.5	42	193	7	11	131	147	–
Lec domain of ADGRL3 (domain or fragment, human, biotin on the Avi-tag (BirA) in the flow cytometry experiments, ADGRL3 (Latrophilin3), human, N-terminal Lectin (Lec) domain; also called ADGRL3Lec; lectin domain of ADGRL3; source: High Five insect cells (baculovirus), secreted, purified (Ni-NTA, SEC)) PIPMAVVRRELSCESYPIELRCPGTDVIMIESANYGRTDDKICDSDPAQMENIRCYLPDAYKIMSQRCNNRTQCAVVAGPDVFPDPCPGTYKYLEVQYECVPY	–	–	–	–	–	–	–	129
